From publication PMC11193018 (The Journal of Biological Chemistry, 2024) come the findings set out here.

Data set [1] deals with Methanocaldococcus jannaschii GINS, wild type, non-His-tagged (Methanocaldococcus jannaschii). In words: SEC.
Data set [2] concerns the target MjGINS domain A (residues 21-115), as crystallized (Methanocaldococcus jannaschii). In words: crystal structure.
The target in data set [3] is MjGINS-M, dimeric mutant of MjGINS (K58A, K74A, K78A, I101A, I105A) (Methanocaldococcus jannaschii). In words: SEC. A general note: Size exclusion chromatography separates by hydrodynamic size, large species first.
The data set “crystal structure” deals with the molecule itself. In words: crystal structure.
The data set “SEC” concerns the molecule itself. The data set is described as follows: SEC.

Consider “Methanocaldococcus jannaschii GINS, wild type, non-His-tagged (natural protein)”, for which the stoichiometry N (in general, a count of units in the complex or per binding partner) in data set [1] was found to be 4. The molecule “MjGINS domain A (residues 21-115), as crystallized (domain or fragment)” came in with a stoichiometry N in data set [2] of 4. As to “MjGINS-M, dimeric mutant of MjGINS (K58A, K74A, K78A, I101A, I105A) (natural protein)”, the stoichiometry N in data set [3] worked out at 2.

B1: Methanocaldococcus jannaschii RecJ2, tag-free, for crystallization (enzyme)
chain: MMEKLKEIEKVTKAIKEKILNHYGYIRVITHHDTDGLSSGGILAKMLMRTNKLFHLTVVEHLSKEVIEKLAKENEVNKPLFIFADMGSGQIEEIIKHNFNAIILDHHPPVIKDSFINENIIQLNPHIFGVDGSREITASGVCYLVAREFGYYDLSVLAIVGIIGDMQYNPLLGLNKFIVNEAREYRYVKIMNDIVYNIYDVEIYKAIAYCTKPYIPDLASEGKAFKFLKDIGIDPNKKQLDDTDKKKLLSAIIFKYPKIENLLIDRYLIEHKVRDAFLLSEMLNAVGRNGLFAVGIGICLEDDECIKIGNQILWEYKKNLINELKSVKLKKLNNIYYFEGKKGMIGIIASILVDDKPVIGYHIEGDIAKFSARGNRDLVNRGLNLSVAMAVAKEFGGNGGGHDVASGAVVSKDKVQEFLKRVDEIIGEQLRR
For the molecule B1, in the data set “crystal structure”, the “stoichiometry N” value is 2.

B2: Methanocaldococcus jannaschii RecJ2, wild type, His-tagged (enzyme)
chain: MMEKLKEIEKVTKAIKEKILNHYGYIRVITHHDTDGLSSGGILAKMLMRTNKLFHLTVVEHLSKEVIEKLAKENEVNKPLFIFADMGSGQIEEIIKHNFNAIILDHHPPVIKDSFINENIIQLNPHIFGVDGSREITASGVCYLVAREFGYYDLSVLAIVGIIGDMQYNPLLGLNKFIVNEAREYRYVKIMNDIVYNIYDVEIYKAIAYCTKPYIPDLASEGKAFKFLKDIGIDPNKKQLDDTDKKKLLSAIIFKYPKIENLLIDRYLIEHKVRDAFLLSEMLNAVGRNGLFAVGIGICLEDDECIKIGNQILWEYKKNLINELKSVKLKKLNNIYYFEGKKGMIGIIASILVDDKPVIGYHIEGDIAKFSARGNRDLVNRGLNLSVAMAVAKEFGGNGGGHDVASGAVVSKDKVQEFLKRVDEIIGEQLRR
On to B2, for which the “stoichiometry N” value in the data set “SEC” was found to be 2.
